From US20240093191A1, “COMPOSITIONS AND METHODS FOR TREATING DISEASE ASSOCIATED WITH DUX4 OVEREXPRESSION” (RESEARCH INSTITUTE AT NATIONWIDE CHILDREN'S HOSPITAL, priority 2021, published 2024)

Test system: DUX4-mir-675Res
Assay: Western blot against mir-675-resistant DUX4 construct (CMV.DUX4-mir-675Res) in HEK293 cells
Type: cell-based, human
Settings: FIG. 20; blinded western blot
Text: Sequence Generation and Cloning. All miRNAs used in this study were designed as previously reported in [Wallace et al., Mol. Ther. Methods Clin. Dev. 8:121-130 (2018)]. All miDUX4s were cloned into the mir-30 based/U6 construct as previously described [Wallace et al., Mol. Ther. 20:1417-23 (2012)]. MicroRNA-675 sequence was obtained from the miRBase database (www.mirbase.org), and all mir-675 constructs used in this study were cloned into an expression plasmid downstream of an RNA polymerase III class of promoters (U6 or H1 promoters). The sequence of the stem loop structure of mir-675, mir-675-5p and mir-675-3p constructs is shown in FIG. 17A-B. The CMV.H19 construct was purchased from OriGene. The psi2-DUX4FI was PCR amplified using the AAV.CMV.DUX44V5 construct as template, and the following primers: forward primer: […] (SEQ ID NO: 127), and reverse primer: […] (SEQ ID NO: 128). The PCR product was then cloned into a previously designed psicheck2 (psi2) SD5 mutant (Renilla luciferase have the SD5 mutant) plasmid [Ansseau et al., Plos One 10: e0118813 (2015)] using XhoI/SpeI restriction sites and the psi2.SD5 mutant-DUX4 3′UTR plasmid backbone. […] In addition, this plasmid contains a cytomegalovirus promoter (CMVp)-driven DUX4 full-length sequence encompassing the DUX4 open reading frame (DUX4 ORF), the DUX4 3′UTR sequence (pLAM sequence). […]

Molecule	effect on DUX4 protein level of mir-675-resistant DUX4 construct
H1.mir-675: commercially available H1 promoter mir-675 expression plasmid (SBI Biosciences) (nucleic acid) DNA: GAACGCTGACGTCATCAACCCGCTCCAAGGAATCGCGGGCCCAGTGTCACTAGGCGGGAACACCCAGCGCGCGTGCGCCCTGGCAGGAAGATGGCTGTGAGGGACAGGGGAGTGGCGCCCTGCAATATTTGCATGTCGCTATGTGTTCTGGGAAATCACCATAAACGTGAAATGTCTTTGGATTTGGGAATCTTATAAGTTCTGTATGAGACCACCCCCCAGGGTCTGGTGCGGAGAGGGCCCACAGTGGACTTGGTGACGCTGTATGCCCTCACCGCTCAGCCCCTGGGGAATTCTTCGATTCTGCTTTTTT	not able to reduce DUX4 protein level
U6.mir-675: U6 promoter-driven mir-675 expression plasmid with 40 nt 5' and 47 nt 3' flanking sequences (nucleic acid) DNA: GACGCCGCCATCTCTAGGCCCGCGCCGGCCCCCTCGCACAGACTTGTGGGAGAAGCTCGGCTACTCCCCTGCCCCGGTTAATTTGCATATAATATTTCCTAGTAACTATAGAGGCTTAATGTGCGATAAAAGACAGATAATCTGTTCTTTTTAATACTAGCTACATTTTACATGATAGGCTTGGATTTCTATAAGAGATACAAATACTAAATTATTATTTTAAAAAACAGCACAAAAGGAAACTCACCCTAACTGTAAAGTAATTGTGTGTTTTGAGACTATAAATATCCCTTGGAGAAAAGCCTTGTTTGCGTTTAGTGAACCGTCAGATGGTACCGTTTAAACTCGAGCCCAGGGTCTGGTGCGGAGAGGGCCCACAGTGGACTTGGTGACGCTGTATGCCCTCACCGCTCAGCCCCTGGGACTAGAGCGGCCGCCACAGCGGGGAGATCCAGACATGATAAGATACATTTTTT	not able to reduce DUX4 protein level
